{
  "source": "paper PMC10275640",
  "key": {"[1]": {"biological_target": "Uso1 CCD-His6x (coiled-coil domain, residues 660–1103) (Aspergillus nidulans)", "assay": "AUC + other: dynamic light scattering; sedimentation velocity (20 °C, 48,000 rpm, PBS with 5% glycerol and 1 mM β-mercaptoethanol) and DLS at 20 °C; molecular mass from the Svedberg equation, compared with the predicted monomer"}, "[2]": {"biological_target": "Bos1-GST (Bos1 cytoplasmic domain, residues 1–219) (Aspergillus nidulans)", "assay": "pull-down; 75 µg SNARE-GST on glutathione Sepharose; His6 preys at 0.2 µM, overnight at 4 °C in 25 mM HEPES-KOH pH 7.5, 150 mM NaCl, 10% glycerol, 0.1% Triton X-100, 0.1 mM DTT; anti-His blot"}, "[3]": {"biological_target": "Bet1-GST (Bet1 cytoplasmic domain, residues 1–144)", "assay": "GST pull-down with purified proteins, anti-His western blot quantitation", "settings": "n = 3, read off a plot"}, "[4]": {"biological_target": "Bos1-GST (Bos1 cytoplasmic domain, residues 1–219)", "assay": "GST pull-down with purified proteins, anti-His western blot quantitation", "settings": "n = 3; parent: est. 0.7; read off a plot"}, "[5]": {"biological_target": "Bos1-GST (Bos1 cytoplasmic domain, residues 1–219)", "assay": "GST pull-down with purified proteins, anti-His6x western blot quantitation", "settings": "4 data points; parent: est. 0.5; read off a plot"}, "[6]": {"biological_target": "Uso1(E6K/G540S)-His6x (full length) (Aspergillus nidulans)", "assay": "AUC + other: dynamic light scattering; sedimentation velocity (20 °C, 48,000 rpm, PBS with 5% glycerol and 1 mM β-mercaptoethanol) and DLS at 20 °C; molecular mass from the Svedberg equation, compared with the predicted monomer"}, "[7]": {"biological_target": "Uso1(E6K/G540S)ΔCTR-His6x (residues 1–1040) (Aspergillus nidulans)", "assay": "AUC + other: dynamic light scattering; sedimentation velocity (20 °C, 48,000 rpm, PBS with 5% glycerol and 1 mM β-mercaptoethanol) and DLS at 20 °C; molecular mass from the Svedberg equation, compared with the predicted monomer"}, "[8]": {"biological_target": "Uso1-HA3 (native full-length Uso1 in Aspergillus extract) (Aspergillus nidulans)", "assay": "SEC; Aspergillus cell extract on Superose 6 10/300 in 25 mM Tris-HCl pH 7.5, 600 mM KCl, 4 mM EDTA, 1 mM DTT; fractions blotted with α-HA"}, "[9]": {"biological_target": "Uso1-His6x (full-length Uso1, residues 1–1103) (Aspergillus nidulans)", "assay": "SEC; bacterially expressed, purified His-tagged reference proteins run on the same Superose column; fractions blotted with α-His"}, "[10]": {"biological_target": "Bet1-GST (Bet1 cytoplasmic domain, residues 1–144) (Aspergillus nidulans)", "assay": "pull-down; 75 µg SNARE-GST on glutathione Sepharose; His6 preys at 0.2 µM, overnight at 4 °C in 25 mM HEPES-KOH pH 7.5, 150 mM NaCl, 10% glycerol, 0.1% Triton X-100, 0.1 mM DTT; anti-His blot"}, "[11]": {"biological_target": "Uso1-His6x (full-length Uso1, residues 1–1103) (Aspergillus nidulans)", "assay": "AUC + other: dynamic light scattering; sedimentation velocity (20 °C, 48,000 rpm, PBS with 5% glycerol and 1 mM β-mercaptoethanol) and DLS at 20 °C; molecular mass from the Svedberg equation, compared with the predicted monomer"}, "[12]": {"biological_target": "Uso1ΔCTR-His6x (residues 1–1040) (Aspergillus nidulans)", "assay": "AUC + other: dynamic light scattering; sedimentation velocity (20 °C, 48,000 rpm, PBS with 5% glycerol and 1 mM β-mercaptoethanol) and DLS at 20 °C; molecular mass from the Svedberg equation, compared with the predicted monomer"}},
  "data": [
    {"substance": "Uso1 CCD-His6x (coiled-coil domain, residues 660–1103) (domain or fragment)", "values": [
      {"measurement": "stoichiometry N", "setting": "[1]", "value": 2}
    ]},
    {"substance": "Uso1 GHD E6K (single mutant), His-tagged (domain or fragment)", "values": [
      {"measurement": "fold less efficient than G540S GHD", "setting": "[2]", "value": 3, "unit": "fold"}
    ]},
    {"substance": "Uso1 GHD-His6x (globular head domain, residues 1–659) E6K; G540S", "values": [
      {"measurement": "response", "setting": "[3]; parent: est. 30", "value": 38, "unit": "% bound prey"},
      {"measurement": "response", "setting": "[4]", "value": 21, "unit": "% bound prey"},
      {"measurement": "response (% of input prey bound)", "setting": "[5]", "value": 35}
    ]},
    {"substance": "Uso1 GHD-His6x (globular head domain, residues 1–659) G540S", "values": [
      {"measurement": "response (% of input prey bound)", "setting": "[5]", "value": 35}
    ]},
    {"substance": "Uso1(E6K/G540S)-His6x (full length) (natural protein)", "values": [
      {"measurement": "fold change in protein retained against wild-type Uso1", "setting": "[2]", "value": 5, "unit": "fold"},
      {"measurement": "stoichiometry N", "setting": "[6]", "value": 2}
    ]},
    {"substance": "Uso1(E6K/G540S)ΔCTR-His6x (residues 1–1040) (domain or fragment)", "values": [
      {"measurement": "stoichiometry N", "setting": "[7]", "value": 2}
    ]},
    {"substance": "Uso1-HA3 (native full-length Uso1 in Aspergillus extract) (natural protein)", "values": [
      {"measurement": "stoichiometry N", "setting": "[8]", "value": 2}
    ]},
    {"substance": "Uso1-His6x (full-length Uso1, residues 1–1103) (natural protein)", "values": [
      {"measurement": "stoichiometry N", "setting": "[9]", "value": 2},
      {"measurement": "percent of the prey pulled down", "setting": "[10]", "value": 70, "unit": "%"},
      {"measurement": "stoichiometry N", "setting": "[11]", "value": 2}
    ]},
    {"substance": "Uso1-His6x (full-length Uso1, residues 1–1103) E6K; G540S", "values": [
      {"measurement": "response", "setting": "[3]; parent: est. 68", "value": 60, "unit": "% bound prey"}
    ]},
    {"substance": "Uso1ΔCTR-His6x (residues 1–1040) (domain or fragment)", "values": [
      {"measurement": "stoichiometry N", "setting": "[12]", "value": 2}
    ]}
  ]
}
